Among the data in US20120316071A1 (published 2012) are ECL signal values, retold here.

Assay [1] deals with T1, rHuman CD44/Fc Chimera, CF (human, UniProt P16070 21-220).
T1 construct: Bought from R&D Systems; Fc part of the bought chimera not given
In words: ECL multispot (MSD) assay, antigen spotted on the plate, Fab in solution; blank spot of the same well 298.

For assay [2], the target named is T2, rHuman IGF-1 sR, (IGF-1 sR), CF (human, UniProt P08069 31-932).
T2 construct: Bought from R&D Systems as a soluble receptor; also called insulin-like growth factor-1 soluble receptor
Described as above.
Description: (§1) An 150 μl aliquot of 1% Bovine Serum Albumin (BSA) in Tris-buffered Saline Tween (TBST) was added to each well and allowed to incubate for 30 min at 20° C. followed by washing and tap drying to completely remove any residual solution. Subsequently, a 12.5 μl aliquot of 1% BSA TBST was added to each well followed by the addition of a 12.5 μl aliquot of a purified Fab. The plate was sealed and incubated for 1 hour at 20° C. with shaking
(§2) TAG-detection antibody at 25 μl was added to each well and allowed to incubate for 1 hour at 20° C. with shaking. Finally, 15 μl of Read Buffer P with Surfactant (Cat # R92PC-1, Meso Scale Discovery) was added to each well. The electrochemiluminescence was measured using a Sector Imager 2400 (Meso Scale Discovery). Data was analyzed by comparing the ECL signals for an antigen to the blank of each well. A signal to blank ratio of 4 or more was considered a “Hit” Fab.

Assay [3] deals with T3, rHuman P-Cadherin/Fc Chimera, CF (human, UniProt P22223 108-654).
T3 construct: Bought from R&D Systems; Fc part of the bought chimera not given
The assay is described as above.

In assay [4] the target is T4, rHuman Erythropoietin R/Fc Chimera, CF (human, UniProt P19235 25-250).
T4 construct: Bought from R&D Systems; also called EPO R; EPO R/Fc; Fc part of the bought chimera not given
T4 sequence (looked up): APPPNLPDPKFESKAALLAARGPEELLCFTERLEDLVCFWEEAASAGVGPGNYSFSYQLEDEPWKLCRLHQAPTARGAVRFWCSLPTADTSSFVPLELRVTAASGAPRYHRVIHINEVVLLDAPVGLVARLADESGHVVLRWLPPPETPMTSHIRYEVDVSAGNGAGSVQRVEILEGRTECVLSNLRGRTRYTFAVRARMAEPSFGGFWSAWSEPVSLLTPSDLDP
Described as above.

Assay [5] deals with T5, Recombinant Human DLL4 (human, UniProt Q9NR61 27-524).
T5 construct: Bought from R&D Systems; also called delta-like protein 4; rHuman DLL4
Described as above.
Description: as §1, §2

Assay [6] deals with T6, rHuman ErbB2/Fc Chimera, CF (human, UniProt P04626 23-652).
T6 construct: Bought from R&D Systems; also called human epidermal growth factor 2 receptor; Fc part of the bought chimera not given
The description is as above.

The target of assay [7] is T7, rHuman EGF R/Fc Chimera, CF (human, UniProt P00533 25-645).
T7 construct: Bought from R&D Systems; also called epidermal growth factor receptor; Fc part of the bought chimera not given
The description is as above.

For assay [8], the target named is T8, rHuman HGF R/c-MET/Fc Chimera, CF (human, UniProt P08581 25-932).
T8 construct: Bought from R&D Systems; also called HGF R/Fc; hepatocyte growth factor receptor; Fc part of the bought chimera not given
T8 sequence (P08581 25-932, change not shown): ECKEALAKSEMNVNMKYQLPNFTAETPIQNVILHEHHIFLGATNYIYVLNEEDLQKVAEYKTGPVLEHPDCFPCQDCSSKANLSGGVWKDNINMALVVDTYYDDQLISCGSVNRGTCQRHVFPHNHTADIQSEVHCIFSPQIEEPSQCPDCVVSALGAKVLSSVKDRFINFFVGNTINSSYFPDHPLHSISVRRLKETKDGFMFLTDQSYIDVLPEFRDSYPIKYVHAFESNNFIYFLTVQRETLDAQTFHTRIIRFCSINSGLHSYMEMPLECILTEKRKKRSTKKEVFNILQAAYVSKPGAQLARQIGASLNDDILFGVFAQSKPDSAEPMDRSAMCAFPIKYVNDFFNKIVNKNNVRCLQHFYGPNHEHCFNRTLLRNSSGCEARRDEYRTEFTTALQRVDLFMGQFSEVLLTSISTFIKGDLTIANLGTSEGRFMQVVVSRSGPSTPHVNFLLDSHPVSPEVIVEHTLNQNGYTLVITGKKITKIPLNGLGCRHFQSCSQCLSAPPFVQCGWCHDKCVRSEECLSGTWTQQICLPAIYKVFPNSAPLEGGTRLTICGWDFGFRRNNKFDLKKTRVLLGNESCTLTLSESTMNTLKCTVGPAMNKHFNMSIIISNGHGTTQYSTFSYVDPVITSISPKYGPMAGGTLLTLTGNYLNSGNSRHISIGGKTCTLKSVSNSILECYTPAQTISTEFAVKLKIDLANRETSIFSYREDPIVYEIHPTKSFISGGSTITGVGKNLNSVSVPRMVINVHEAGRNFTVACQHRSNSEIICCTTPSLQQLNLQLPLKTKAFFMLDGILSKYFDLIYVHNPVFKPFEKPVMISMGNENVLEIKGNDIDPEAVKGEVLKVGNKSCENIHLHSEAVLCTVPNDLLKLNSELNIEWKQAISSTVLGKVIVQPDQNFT
The assay is described as above.

Assay [9] addresses T9, rHuman Notch-1/Fc Chimera, CF (human, UniProt P46531 19-526).
T9 construct: Bought from R&D Systems; Fc part of the bought chimera not given
The description is as above.

In assay [10] the target is T1, rHuman CD44/Fc Chimera, CF. Briefly: ECL multispot (MSD) assay, antigen spotted on the plate, Fab in solution; blank spot of the same well 284.
Description: as §1, §2
Assay [11] addresses T2, rHuman IGF-1 sR, (IGF-1 sR), CF. Described as above.
Description: as §1, §2
The target of assay [12] is T3, rHuman P-Cadherin/Fc Chimera, CF. The assay is described as above.
Description: as §1, §2
In assay [13] the target is T5, Recombinant Human DLL4. The assay is described as above.
Description: as §1, §2
Assay [14] has as its target T6, rHuman ErbB2/Fc Chimera, CF. Described as above.
Description: as §1, §2
Assay [15] has as its target T7, rHuman EGF R/Fc Chimera, CF. The assay is described as above.
Description: as §1, §2
Assay [16] addresses T8, rHuman HGF R/c-MET/Fc Chimera, CF. The assay is described as above.
Description: as §1, §2
Assay [17] has as its target T9, rHuman Notch-1/Fc Chimera, CF. Described as above.
Description: as §1, §2
Assay [18] has as its target T2, rHuman IGF-1 sR, (IGF-1 sR), CF. In words: ECL multispot (MSD) assay, antigen spotted on the plate, Fab in solution; blank spot of the same well 331.
Description: as §1, §2
The target in assay [19] is T4, rHuman Erythropoietin R/Fc Chimera, CF. Described as above.
Description: as §1, §2
Assay [20] addresses T5, Recombinant Human DLL4. The description is as above.
Description: as §1, §2
For assay [21], the target named is T6, rHuman ErbB2/Fc Chimera, CF. The description is as above.
Description: as §1, §2
For assay [22], the target named is T7, rHuman EGF R/Fc Chimera, CF. The assay is described as above.
Description: as §1, §2
For assay [23], the target named is T9, rHuman Notch-1/Fc Chimera, CF. Described as above.
Description: as §1, §2
In assay [24] the target is T1, rHuman CD44/Fc Chimera, CF. Briefly: ECL multispot (MSD) assay, antigen spotted on the plate, Fab in solution; blank spot of the same well 407.
Description: as §1, §2
In assay [25] the target is T2, rHuman IGF-1 sR, (IGF-1 sR), CF. The description is as above.
Description: as §1, §2
Assay [26] addresses T3, rHuman P-Cadherin/Fc Chimera, CF. Described as above.
Description: as §1, §2
Assay [27] addresses T4, rHuman Erythropoietin R/Fc Chimera, CF. Described as above.
Description: as §1, §2
The target of assay [28] is T5, Recombinant Human DLL4. Described as above.
Description: as §1, §2
The target in assay [29] is T6, rHuman ErbB2/Fc Chimera, CF. The assay is described as above.
Description: as §1, §2
For assay [30], the target named is T7, rHuman EGF R/Fc Chimera, CF. Described as above.
Description: as §1, §2
The target of assay [31] is T8, rHuman HGF R/c-MET/Fc Chimera, CF. The assay is described as above.
Description: as §1, §2
The target in assay [32] is T9, rHuman Notch-1/Fc Chimera, CF. Described as above.
Description: as §1, §2

B1: Fab VH1-46_IGHD6-6*01_IGHJ1*01 S102A/S103P/S104F/H111F (APFF) & L6_IGKJ1*01 S31R (Fab, V domains shown)
VH: QVQLVQSGAEVKKPGASVKVSCKASGYTFTSYYMHWVRQAPGQGLEWMGIINPSGGSTSYAQKFQGRVTMTRDTSTSTVYMELSSLRSEDTAVYYCAREEYAPFSAEYFQFWGQGTLVTVSS
VL: EIVLTQSPATLSLSPGERATLSCRASQSVSRYLAWYQQKPGQAPRLLIYDASNRATGIPARFSGSGSGTDFTLTISSLEPEDFAVYYCQQRSNWPPWTFGQGTKVEIKR
notes: Tested as an E. coli Fab; The heavy chain carries CH1 with His6 and Flag tags from plasmid A, the light chain a kappa CL from plasmid C; also called APFF / S31R; H:APFF & L6_IGKJ1*01 S31R
With B1, the ECL signal in assay [1] was 423; in [2], 374; in [3], 270; in assay [4] it was 465; in the assay with Recombinant Human DLL4 [5] it was 166000; in [6] it was 313. Further, the ECL signal was 331 in [7], 261 in [8] and 358 in assay [9].

B2: Fab VH1-46_IGHD6-6*01_IGHJ1*01 S102A/S103P/S104F/H111F (APFF) & L6_IGKJ1*01 S31Y (Fab, V domains shown)
VH: QVQLVQSGAEVKKPGASVKVSCKASGYTFTSYYMHWVRQAPGQGLEWMGIINPSGGSTSYAQKFQGRVTMTRDTSTSTVYMELSSLRSEDTAVYYCAREEYAPFSAEYFQFWGQGTLVTVSS
VL: EIVLTQSPATLSLSPGERATLSCRASQSVSYYLAWYQQKPGQAPRLLIYDASNRATGIPARFSGSGSGTDFTLTISSLEPEDFAVYYCQQRSNWPPWTFGQGTKVEIKR
notes: Tested as an E. coli Fab; The heavy chain carries CH1 with His6 and Flag tags from plasmid A, the light chain a kappa CL from plasmid C; also called APFF / S31Y; H:APFF & L6_IGKJ1*01 S31Y
Take B2: the ECL signal worked out at 445 in assay [10]; 293 in [11]; 361 in [12]; 188000 in the assay with Recombinant Human DLL4 [13]; 236 in assay [14]; 320 in [15]. The ECL signal in [16] is 197; in assay [17] it was 351.

B3: Fab VH1-46_IGHD6-6*01_IGHJ1*01 S102A/S103P/S104F/H111F (APFF) & L6_IGKJ1*01 S31E (Fab, V domains shown)
VH: QVQLVQSGAEVKKPGASVKVSCKASGYTFTSYYMHWVRQAPGQGLEWMGIINPSGGSTSYAQKFQGRVTMTRDTSTSTVYMELSSLRSEDTAVYYCAREEYAPFSAEYFQFWGQGTLVTVSS
VL: EIVLTQSPATLSLSPGERATLSCRASQSVSEYLAWYQQKPGQAPRLLIYDASNRATGIPARFSGSGSGTDFTLTISSLEPEDFAVYYCQQRSNWPPWTFGQGTKVEIKR
notes: Tested as an E. coli Fab; The heavy chain carries CH1 with His6 and Flag tags from plasmid A, the light chain a kappa CL from plasmid C; also called APFF / S31E; H:APFF & L6_IGKJ1*01 S31E
Consider B3, for which the ECL signal in [18] came out at 367; in assay [19], 441; in the assay with Recombinant Human DLL4 [20], 171000; in [21], 313; in [22], 297; in assay [23], 460.

B4: Fab VH1-46_IGHD6-6*01_IGHJ1*01 S102A/S103P/S104F/H111F (APFF) & L6_IGKJ1*01 S31Q (Fab, V domains shown)
VH: QVQLVQSGAEVKKPGASVKVSCKASGYTFTSYYMHWVRQAPGQGLEWMGIINPSGGSTSYAQKFQGRVTMTRDTSTSTVYMELSSLRSEDTAVYYCAREEYAPFSAEYFQFWGQGTLVTVSS
VL: EIVLTQSPATLSLSPGERATLSCRASQSVSQYLAWYQQKPGQAPRLLIYDASNRATGIPARFSGSGSGTDFTLTISSLEPEDFAVYYCQQRSNWPPWTFGQGTKVEIKR
notes: Tested as an E. coli Fab; The heavy chain carries CH1 with His6 and Flag tags from plasmid A, the light chain a kappa CL from plasmid C; also called APFF / S31Q; H:APFF & L6_IGKJ1*01 S31Q
On to B4, for which the ECL signal in [24] turned out to be 438; in [25] it was 415; in [26] it was 379; in assay [27], 548; in the assay with Recombinant Human DLL4 [28], 165000; in assay [29] it was 392. In addition, the ECL signal was determined as 390 in assay [30], 329 in assay [31] and 383 in assay [32].
